± gives the uncertainty stated by the source.

For 132 substances, amyloid nucleation score results are on record in the supplement of paper PMC12042874.

The nature of this series: amyloid nucleation score (Sup35N fusion, yeast selection) (log enrichment); library NNK3; higher = more nucleation; inactive = no reads after selection. The essentials:
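Nucleation score is defined as the DiMSum log enrichment of output over input reads, with centring on the mode score of non-aggregating sequences. A minimum of 100 input reads was required for each sequence. Reads came from Illumina sequencing of plasmid inserts from psi-negative yeast expressing Sup35N fused to peptides of 20 random codons, induced with 100 μM copper sulfate for 24 hours and grown 7 days at 30°C on medium lacking adenine and uracil.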
TSIIYMFNSFL displayed an amyloid nucleation score of 2.9 ± 0.06. In turn, LMIMSKVSKSP gave an amyloid nucleation score of 0.465 ± 0.25.

As to SCTVKSAGGFVSHRFNGSMG, the amyloid nucleation score result is “inactive”. For WRKTRGLNILRLWSLVSFRM the value was “inactive”; for TNFSRYEDFVLLFCPILYAF, “inactive”. Then RSRAFGDGKNWMHCRRYVM, with “inactive”. Then GLFRRVRGIRT, with “inactive”; and TPCAKTIELHWCVVERRSSY, with “inactive”. For VVVGIGVAALYEPV, the amyloid nucleation score result was “inactive”. Regarding DVLLVIKVDYQVGLARVSRL, the amyloid nucleation score result was “inactive”. For the substance RIPLWCFS, the amyloid nucleation score entry is “inactive”. Then VSGYNW, with “inactive”; and HVAGTCAQLTLFKDIGLTYK, with “inactive”; and RVVAFHIANDLLLSLKKS, with 1.39 ± 0.093. In the case of WSSSS, the amyloid nucleation score result is “inactive”.

Take GAFSEDFRESGLFLNVREGE: the amyloid nucleation score entry was “inactive”.

As for LFMLVAE, the amyloid nucleation score result was “inactive”. Then SFLTDMPKTKVYCAMNLPMI, with -0.121 ± 0.66; and IIVFLRLSPELCVMCVRR, with “inactive”. With TIPLSFFDHI, the amyloid nucleation score entry was “inactive”.

CCFNMW: the amyloid nucleation score came to 1.46 ± 0.09.

With MHAVDNNLRVNIIMSVLLYK, the amyloid nucleation score entry was “inactive”. For SLMSGWN, the amyloid nucleation score entry is “inactive”. On to LRKRELCGIPSINAAPGLLG, for which the amyloid nucleation score entry is “inactive”. Regarding DCGKWNLWSQPLGTG, the amyloid nucleation score entry was “inactive”. For YPYCKKGWCDMKTKGRSKEG the value was “inactive”; for RAFFDC, -0.47 ± 0.66; for TWWFK, -0.234 ± 0.28. For GGKSVLLTFFQWLP the value was 0.56 ± 0.2.

In turn, VSLGFEFMGFHAGW showed an amyloid nucleation score of 1.09 ± 0.15.

For the substance TVLYLNDDIATYHRMLVFRV, the amyloid nucleation score entry was “inactive”. For YIVLKYSEMRTRVTDYRTTG the value was “inactive”; for RRNYRSFKDLLFHDYTFMDS, “inactive”. On to HYWEVYLGTCLRAQDVQER, for which the amyloid nucleation score is 1.57 ± 0.097. For IMEEFVTIFDYLQMAMFTRR the value was “inactive”; for YWGIVVILSGDLRGYDH, “inactive”; for ISGLSNMAYFLVNAWKLM, “inactive”. For YNRFLVVSGMGMSFYGKQYM the value was 1.51 ± 0.074; for LVEMNFLAVINRFICSSSLP, “inactive”; for MVFLVVVWFVKNGWKCVYGS, “inactive”. Consider AMCALVSIRP, for which the amyloid nucleation score entry is “inactive”. As for CTHVLRNWGIKNGP, the amyloid nucleation score entry is “inactive”. Turning to SRCIDGSAWASVAQRRSFSE, the amyloid nucleation score was -0.098 ± 0.85. Substance FSIPPFTRTCLKNGLHYSVR came in with an amyloid nucleation score of -0.759 ± 0.88.

Regarding YMRDVDFIRSEGG, the amyloid nucleation score result was “inactive”. Then VPGLHLSNPTAELDMQI, with “inactive”; and LTFTAVNWAVPVGRGT, with “inactive”; and DTSVYFQSSTCCAKKSGHKP, with “inactive”. EFYFATRMMF registered an amyloid nucleation score of 1.09 ± 0.092. Then RTSYVNLLYIMLDLLIRFRS, with “inactive”. Then YRLPMILKFLNWGFSYLVPF, with “inactive”; and CYKMNVMT, with “inactive”; and YTLLCNPMVSKSARRLLNWI, with “inactive”.

The substance YKSVYMRF had an amyloid nucleation score of 0.709 ± 0.18. ADERRVIR: the amyloid nucleation score result was “inactive”. Regarding HVNNTKSSLVRLSVLMHSVS, the amyloid nucleation score result is “inactive”.

Regarding GFSYSWNLFILFGQQICWIW, the amyloid nucleation score result was “inactive”. As to NQVMKSNVVYYKATVNNMCF, the amyloid nucleation score was found to be 2.09 ± 0.071.

Take YVYSRVMECKDRHYETYFVA: the amyloid nucleation score result was “inactive”. Then TRLFRDNFHFLGRSLSATYV, with “inactive”; and PTLILWDFCCLVLVEAFYGC, with “inactive”; and DIQVFLTSSLQFIAEISVGG, with “inactive”. For RFWKTTPNGQIRVSSVMRCM the value was “inactive”; for IDLTTDSLDM, “inactive”; for KAREVGIQWRKWSIIAWNNW, 1.45 ± 0.095.

With LCEKYFLRRFYFMTTGLSGR, the amyloid nucleation score entry is “inactive”.

For the substance LNFCDRTIEICRLEY, the amyloid nucleation score entry was “inactive”. For YLYMG the value was “inactive”; for VYSDDVKVVYMYGTNPFDTV, “inactive”; for IWIRAVDLGLDGLPSFFSIS, “inactive”. For LDGFSSKILGMFEEAVVYRM the value was “inactive”; for CAQARSRFTYQSAHR, “inactive”. Regarding SRMTIVKSWKRMLGRLLMRL, the amyloid nucleation score result is “inactive”. For WNTGNMLPSVFTQMFA the value was “inactive”; for AMKPMKNRSASLVGN, “inactive”; for MVFQYRYFSLLLVWSNCSGA, “inactive”. Then CSDATIGQNSGSHDQLNRSD, with “inactive”; and GWLGSVGAKPADRVGKTGGI, with 0.504 ± 0.24. For the substance HNYLRS, the amyloid nucleation score entry was “inactive”.

QNCVTDMSKNLGIVREFSCS: the amyloid nucleation score entry is “inactive”.

With HYPIRERNAFLLNNDVDLLA, the amyloid nucleation score entry was “inactive”.

For RILPYSGSALLISTGFYHR, the amyloid nucleation score result is “inactive”. As for YFCFVLFYLN, the amyloid nucleation score was found to be 2.04 ± 0.07. For RSNLRLGSRDKPAIQL the value was “inactive”; for SRRNIPVGGLSNWLPVWSVG, “inactive”. Then CSRLPVHRFIP, with “inactive”; and SMNFLICMIWSIVS, with 1.02 ± 0.21; and QNNTLGVSLVTFRGLVE, with “inactive”. In turn, TVSGLMVFVMHNGYS registered an amyloid nucleation score of 1.45 ± 0.084. Then TVLLLGRWYN, with 1.24 ± 0.14; and CFTDSFINTLCVFNIDPGFP, with 2.46 ± 0.051. On to RKFAGYQSSNASGSPVQGMS, for which the amyloid nucleation score result is “inactive”.

Regarding VLARLQLHFCSMTSDRYGLM, the amyloid nucleation score was found to be 1.04 ± 0.11. For the substance SLFVLCFH, the amyloid nucleation score came out at 0.717 ± 0.13.

AWAVEATRFILLRWGQGTWD: the amyloid nucleation score is -0.247 ± 1.3. On to VYESFLLMLFYFRSDCKKKR, for which the amyloid nucleation score result is “inactive”. For TFSQGSWRTESSLRDGGCLD the value was “inactive”; for IVMRPSIGMILYSRSPFVYS, “inactive”. For LFMEDVLRFGLLYLI the value was “inactive”. KCYNKVWELMLAYG: the amyloid nucleation score result is “inactive”.

With FLPRLSNIWPNFDSSEQLRY, the amyloid nucleation score result is “inactive”. For QMVIHTVLGLKSLCVMFPSR the value was 1.04 ± 0.088. YEDAAILDVCDPQIELLLHQ: the amyloid nucleation score entry was “inactive”. For LYFMCTNRQVL the value was “inactive”.

In the case of SQKEGNKDRPVCVSGNSSCS, the amyloid nucleation score entry is “inactive”. With GAIWERLDIREM, the amyloid nucleation score result was “inactive”. In the case of MYPLTVWIVLRLGDSFLK, the amyloid nucleation score result was “inactive”. For EVKSDVMKLFNCVFSCPLTF, the amyloid nucleation score stood at 2.38 ± 0.073. On to DCPLNNVTSLSHP, for which the amyloid nucleation score entry was “inactive”. For ATGDNNLGIMAMALYT the value was “inactive”; for PLEWNNGVYISGWLWVLVSW, -0.518 ± 0.63.

In the case of YSVFAVFILRHGSRILY, the amyloid nucleation score result was “inactive”. Then DSKSSYK, with “inactive”; and VFGRWCFLETCMMHFTFSRY, with 0.865 ± 0.22. Then MFLCYNVLVVTESLGLAHLD, with “inactive”.

As to EFSVLWMLQMDHSTLKFANS, the amyloid nucleation score result was “inactive”. Then SAGMNMLYMYECKSSSMGFC, with “inactive”. TFIHRHINNTSQLPGSFMKL: the amyloid nucleation score entry was “inactive”. For VGSCIVKMIDFASTKGRGLI the value was “inactive”. For HYAVQYTNRYKGFKLHKQHN, the amyloid nucleation score entry was “inactive”. For AVDLNVTLQWVCSRGRRWVF the value was 0.051 ± 0.3; for MCLSMVKISKNKLSFTGFLI, “inactive”; for FGQLGVVNGFTELWQRLCSW, “inactive”. For ADWYWFMAMQRNNLL the value was “inactive”; for DTSTSMFRRVMEATVSTSLL, “inactive”. Then PLEVLAKFFWDDWATHSMDL, with “inactive”; and GSGHAVIEVIRRFCSEDDNK, with “inactive”. Turning to SELRWYL, the amyloid nucleation score entry was “inactive”.

As to SNQLSFLYNN, the amyloid nucleation score is -0.409 ± 0.76.

As to LNVRSI, the amyloid nucleation score result was “inactive”. Then NASCGDNVLLYLFKMTFCLG, with 0.139 ± 0.25; and QYICHDNCRCCQRNEKFRRK, with “inactive”.
